The values below come from article PMC12455602.

Assay [1] has as its target SscR^Ac (RSS-sensitive transcription factor in copper stress response), MarR family transcriptional regulator of Acidithiobacillus caldus (Acidithiobacillus caldus). As to the kind of experiment: SEC. On the technique in general: In gel filtration, larger molecules generally elute earlier.
Assay [2] concerns the target SscR^Ac after H2Sn treatment (persulfidated SscR^Ac) (Acidithiobacillus caldus). Put plainly: SEC.

“SscR^Ac (RSS-sensitive transcription factor in copper stress response), MarR family transcriptional regulator of Acidithiobacillus caldus (natural protein)”: the stoichiometry N in assay [1] is 4.

On to “SscR^Ac after H2Sn treatment (persulfidated SscR^Ac) (natural protein)”, for which, in assay [2], the stoichiometry N is 4.

By stoichiometry N is commonly meant the number of molecules, sites or subunits per partner or assembly.
